{"source": "the supplement of paper PMC9170038"}
{"system": "K4 kissing-loop RNA reporter", "assay": "apparent KD of K4 kissing-loop reporter; higher = weaker reporter binding", "details": "Eterna round: R107; input ligand: arginine 13.2 mM", "description": "(§1)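 RNA-MaP round R107: designed RNA switches with theophylline, tryptophan, arginine or FMN aptamers are transcribed on-chip within common flanks. They are titrated with a labelled K4 kissing-loop RNA reporter in RNA-MaP buffer (100 mM Tris pH 7.5, 80 mM KCl, 4 mM MgCl2), without ligand or with the indicated ligand. Median apparent KD per design.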", "units": {"apparent KD of K4 kissing-loop reporter": "nM"}}
{"sequence": "AUUUAGACGAGUGAUGUUCGUGUUAUUACAGAGGAUAUGCGUAAAAGCAGAAGGCUGUAUUUAUAUUUGUUAUGUAAUUUUAAAA [JR_ExcFMNA_Sub006]", "apparent KD of K4 kissing-loop reporter": 105}
{"sequence": "UUAGAAGUAUACUUCAAGAGGUAUGCUGAUACCAGAGUCAAUUGACUCCCUUGGCAGCGGAUCGAGUGAUGUUCGUAACCUCAUU [AK3.1 SS Theophylline A]", "apparent KD of K4 kissing-loop reporter": 238}
{"sequence": "CGCGCUGCCUGAGGAUAUAGAAACGAGUGAUGUUCGUGGACAAGAGCCAGUGAUGUUGGGUUAUUUCUAGAAGGCAGGCGAUCGU [Exclusion FMN B GF5]", "apparent KD of K4 kissing-loop reporter": 106}
{"sequence": "CACCUAGGUACGGCCGCCACUAGAAGUGAUGUUUCGUCUGGUUCCGCAUUACGUGUACUUUCUUAUAGGACCGGGUAGCAAAUAG [theeternabot_exclusion_KL_Trp_B_3]", "apparent KD of K4 kissing-loop reporter": 288}
{"sequence": "CGUCACACUUGAUGGUUAUCCAAUGAUGAUACCAGCCGUCGAGAUGGCCCUUGGCAGCAUGUGGUACAGUGAUGUUGUACAUUGG [theeternabot_sameState_KL_Theo_A_30]", "apparent KD of K4 kissing-loop reporter": 244}
{"sequence": "UGUAUGUGAUUUGAUACCAGACCAGUUGGUGGUAUAUGAGUGAUGUUUAUGUUGGUUUGGGUCCCUUGGCAGCAAAUCGCAUACU [KL-SSTheoB11]", "apparent KD of K4 kissing-loop reporter": 307}
{"sequence": "AAAUUCUUUUUUUUAUAUAACAAUUCAGAAGGAGCGUGGUAGAACACAGGUAGGUCGCUGAAUAUAAGACUAGUGAUGUUAGUAA [JR_SSArginiA_Sub010]", "apparent KD of K4 kissing-loop reporter": 192}
{"sequence": "AAGGUAUCUAGAUGCUAGCAACAACUAGAUACCAGCAUCGAAAGAUGCCCUUGGCAGCUAGCAGUGAUGUUGCUAGCAAUAAGAA [Design4]", "apparent KD of K4 kissing-loop reporter": 130}
{"sequence": "AAAACUAUCAGAAGGAGCGUGGAAUAUUCAUCUGUAUUUAAUACGAGUGAUGUUCGUAAUUCACAGGUAGGUCGCUGAUCAAUAA [whbob_Ex_Arginine_B_2th154]", "apparent KD of K4 kissing-loop reporter": 253}
{"sequence": "AGACUACCACACUGUCAAUAGACAGUGUACUAGGAUAUGCUGAUAAGCAGAAGGAGUGAUGUUCCGAGGUAGUCAAUAAAAUAAU [FmnAX 13 U28+G66]", "apparent KD of K4 kissing-loop reporter": 258}
{"sequence": "GUUACGCAUGGAAGGAGCGCGAUUAAAUUUAGUGAGUGAUGUUCACAAAAUAAAACUAAAACGCAGGUAGGUCGCCAUGUGUAAC [Ex Arginine B K4 2]", "apparent KD of K4 kissing-loop reporter": 196}
{"sequence": "AAGUGAUGUUGUAGUGAUGUUGUGAUGUUGCAGGAUAUAUAGUGAUGUAGAAGGGUAUGUACAGAUUUUUUUUUUGAGUGAUGAU [ffdcmullin]", "apparent KD of K4 kissing-loop reporter": 37.1}
{"sequence": "GUCCAAACACAGUGAUGUUGUGAAUAUGAAGGAGCGGACGAAAGUCCAGGUAGGUCGCAUAAAGGACACCUACGAAAAGUAGGAA [#SwitchBubble 5 #K4Early]", "apparent KD of K4 kissing-loop reporter": 201}
{"sequence": "UGACUGGACUGAAGGAGCGCUUAACUCCUAGUGAUGUUAGGACAACGAGACAAAGUCUCGAAGCAGGUAGGUCGCAGUCUAGUCU", "apparent KD of K4 kissing-loop reporter": 155}
{"sequence": "UGACUGGACUGAAGGAGCGCUAAACUCCUAGUGAUGUUAGGAAAUACGAGACAAAGUCUCGGGCAGGUAGGUCGCAGUCUAGUCU [ArgBS 19 #SwitchBubble #StaticStem]", "apparent KD of K4 kissing-loop reporter": 118}
{"sequence": "AUUCUAUUGUGAAGGAGCGCGACUAGUAGUGAUGUUACUAUAUGACUUUAGUCUUAAUUCUCGCAGGUAGGUCGCACAAUAUAUA [JR_Nu_SSArginiB_Sub028]", "apparent KD of K4 kissing-loop reporter": 594}
{"sequence": "GGUUCUGUUUUAGGUUUAGUGAUGUUGAAUCGAGGACCGGUACGGCCGCCACUCGGUGACGUCGUAACUUUGGAGGUCCUAACCA [theeternabot_exclusion_KL_Trp_A_47]", "apparent KD of K4 kissing-loop reporter": 642}
{"sequence": "ACUGCCAUUGCGGCCGCCACUAUCUCACUUUGCGAAUCUGCACCGACUGAGUGAUGUUCGGUAAAUAGGACCGGGCAAUGGGCCG [theeternabot_sameState_KL_Trp_B_26]", "apparent KD of K4 kissing-loop reporter": 479}
{"sequence": "GCCGUAGAUCGAAGGAGCGUGCAAGAAUCGUAGUGAUGUUACGGAGAGUGUCACGCCGUCGCACAGGUAGGUCGCGAUCUACGGC", "apparent KD of K4 kissing-loop reporter": 76.4}
{"sequence": "GGAGGGAUCUCGGCCGCCACUCAUAAGAAAUGGGCCUCAGGGAUAUAGUGAUGUUAUGUAAAGAAGAGGACCGGGAGAAAGAAGG [ExTryptoB.Dc]", "apparent KD of K4 kissing-loop reporter": 245}
{"sequence": "GGAUCCACCAGUGAUGUUGGAGAAAACUCGAAGGAUAUGACGAAAGUCAGAAGGUUGUAGACUGGACAAAGUCCGGUCGGAUCCA [FmnA 23 G30+U56]", "apparent KD of K4 kissing-loop reporter": 466}
{"sequence": "AAGGGCAGGACUUCCUUGCCGGAUAGAGAUACCAGCCCAGCAAAGGGCCCUUGGCAGCUCACUGACCUCAGUGAUGUUGAGGUUC [Xebisoer]", "apparent KD of K4 kissing-loop reporter": 268}
{"sequence": "GCUACCUAUGCAGGAUAUGGUAUUACGAGUGAUGUUCGAGGCGAAUAGAGUGAUGUUCUAUUUCCACCAGAAGGGCAUAGGUAGC", "apparent KD of K4 kissing-loop reporter": 97.1}
{"sequence": "UAUUAAUUGUCAGGAUAUCGAAAUCGAGUGAUGUUCGUAUAUCGACGAUAGUCGAUAUUAUUUAUACGAGAAGGGACAUUAUUUA [JR_SSFMNB_Sub003]", "apparent KD of K4 kissing-loop reporter": 572}
{"sequence": "UCCUAGGCUCGAAAGAGCCUAGGUAAGACUCAGGAUAUCUGGAAACAGAGAAGGGAGCUACUAGUGAUGUUAGGAAUUCCCUAAG", "apparent KD of K4 kissing-loop reporter": 97}
{"system": "K4 kissing-loop RNA reporter", "assay": "apparent KD of K4 kissing-loop reporter; higher = weaker reporter binding", "details": "Eterna round: R107; input ligand: none", "description": "as §1", "units": {"apparent KD of K4 kissing-loop reporter": "nM"}}
{"sequence": "UGGAGUUGACGAAAAGUCAACUCCCGAGAAGGAGCGGACGAAAGUCCAGGUAGGUCGCUCGCUACCAGUGAUGUUGGUACAUAAA", "apparent KD of K4 kissing-loop reporter": 130}
{"sequence": "AGUACAAUGGCGGCCGCCACUCAAUGGCAGAUCAAAGAUCUGUAUCACUCAGUGAUGUUGAGUGAGAGGACCGGGCCUUUGUACA [Omei KL Tryp B SS B v9]", "apparent KD of K4 kissing-loop reporter": 500}
{"sequence": "AUUUAGACGAGUGAUGUUCGUGUUAAUACAGAGGAUAUGCGUGAUUGCAGAAGGCUGUAUUUAUAUAUGUUAUGUGGUUUUAAAA [whbob_Ex_FMNA__2th187]", "apparent KD of K4 kissing-loop reporter": 87.2}
{"sequence": "AAAAUAAGCCAGUGAUGUUGGUAUCCAGAUACCAGCGACGAAAGUCGCCCUUGGCAGCUGUGGACGUACAAAAUAAGUACGUCCU", "apparent KD of K4 kissing-loop reporter": 143}
{"sequence": "AACUGUCAAGGAACUUGCAACAAAGGUGAUACCAGCAUCGAAAGAUGCCCUUGGCAGCACCAACUUGCAGUGAUGUUGCAAGUAA [(T)'-(H)'-(T1)-(T2)-(H1)-(H2)_Design7]", "apparent KD of K4 kissing-loop reporter": 322}
{"sequence": "AAUUUAUUAACUGAUACCAGACUUUAAUUUAUAUAUAUGUCUAGUGAUGUUAAACAUAUUGUCCCUUGGCAGCAGUAUUUAUUAA [JR_SSTheophyB_Sub020]", "apparent KD of K4 kissing-loop reporter": 755}
{"sequence": "CGAGUGAUGUUCGAAGAGUUGUUAAGCGAUACCAGCUAGGAGACUGGCCCUUGGCAGCGUAAUAAGUUAAUAAAUAAAUGAUCAC [whbob_Ex_Theo_A_th65]", "apparent KD of K4 kissing-loop reporter": 360}
{"sequence": "AAAUAGAUCAGUCAUCCAGUGAUGUUGGAAGGAGCGUGCGAAAGCACAGGUAGGUCGCCAAAAUAAAACUGGCUGAUCAAAAUAA", "apparent KD of K4 kissing-loop reporter": 338}
{"sequence": "AUUUAGACGAGUGAUGUUCGUGUUAUUACAGAGGAUAUGCGUAAAAGCAGAAGGCUGUAUUUAUAUUUGUUAUGUAAUUUUAAAA [JR_ExcFMNA_Sub006]", "apparent KD of K4 kissing-loop reporter": 85.9}
{"sequence": "UUAGAAGUAUACUUCAAGAGGUAUGCUGAUACCAGAGUCAAUUGACUCCCUUGGCAGCGGAUCGAGUGAUGUUCGUAACCUCAUU [AK3.1 SS Theophylline A]", "apparent KD of K4 kissing-loop reporter": 209}
{"sequence": "CGCGCUGCCUGAGGAUAUAGAAACGAGUGAUGUUCGUGGACAAGAGCCAGUGAUGUUGGGUUAUUUCUAGAAGGCAGGCGAUCGU [Exclusion FMN B GF5]", "apparent KD of K4 kissing-loop reporter": 128}
{"sequence": "CACCUAGGUACGGCCGCCACUAGAAGUGAUGUUUCGUCUGGUUCCGCAUUACGUGUACUUUCUUAUAGGACCGGGUAGCAAAUAG [theeternabot_exclusion_KL_Trp_B_3]", "apparent KD of K4 kissing-loop reporter": 563}
{"sequence": "CGUCACACUUGAUGGUUAUCCAAUGAUGAUACCAGCCGUCGAGAUGGCCCUUGGCAGCAUGUGGUACAGUGAUGUUGUACAUUGG [theeternabot_sameState_KL_Theo_A_30]", "apparent KD of K4 kissing-loop reporter": 383}
{"sequence": "UGUAUGUGAUUUGAUACCAGACCAGUUGGUGGUAUAUGAGUGAUGUUUAUGUUGGUUUGGGUCCCUUGGCAGCAAAUCGCAUACU [KL-SSTheoB11]", "apparent KD of K4 kissing-loop reporter": 491}
{"sequence": "AAAUUCUUUUUUUUAUAUAACAAUUCAGAAGGAGCGUGGUAGAACACAGGUAGGUCGCUGAAUAUAAGACUAGUGAUGUUAGUAA [JR_SSArginiA_Sub010]", "apparent KD of K4 kissing-loop reporter": 203}
{"sequence": "AAGGUAUCUAGAUGCUAGCAACAACUAGAUACCAGCAUCGAAAGAUGCCCUUGGCAGCUAGCAGUGAUGUUGCUAGCAAUAAGAA [Design4]", "apparent KD of K4 kissing-loop reporter": 131}
